What was measured:
RecA wild type [1] = biological target: T1, RecA wild type (Escherichia coli, UniProt P0A7G6 2-353); test: CE-LIFP; ATP, 10 mM Mg2+; 3.0 uM RecA; mainly unsaturated filament; 20 mM Tris-HCl pH 7.4, 10 mM Mg2+, 10 nM oligo, 0-3.0 uM RecA, 37 C 10 min; CE in 25 mM Tris, 192 mM glycine, 0.5 mM Ca2+, pH 8.3, room temperature; conditions: protein: recombinant; label: 5'-TMR
RecA wild type [2] = biological target: T1, RecA wild type; test: CE-LIFP; ATP, 10 mM Mg2+; six complexes (1-6 RecA), mainly 1:4 DNA:RecA at 1.0 mM ATP; 20 mM Tris-HCl pH 7.4, 10 mM Mg2+, 10 nM oligo, 0-3.0 uM RecA, 37 C 10 min; CE in 25 mM Tris, 192 mM glycine, 0.5 mM Ca2+, pH 8.3, room temperature; conditions: protein: recombinant; label: 5'-TMR
RecA wild type [3] = biological target: T1, RecA wild type; test: CE-LIFP; 0.01-3.0 mM ATP; 16 uM RecA; four complexes; 20 mM Tris-HCl pH 7.4, 10 mM Mg2+, 10 nM oligo, 0-3.0 uM RecA, 37 C 10 min; CE in 25 mM Tris, 192 mM glycine, 0.5 mM Ca2+, pH 8.3, room temperature; conditions: protein: recombinant; label: 5'-TMR
RecA wild type [4] = biological target: T1, RecA wild type; test: CE-LIFP; 0.1 mM ATPgS, 10 mM Mg2+; 3.0 uM RecA; saturated filament; 20 mM Tris-HCl pH 7.4, 10 mM Mg2+, 10 nM oligo, 0-3.0 uM RecA, 37 C 10 min; CE in 25 mM Tris, 192 mM glycine, 0.5 mM Ca2+, pH 8.3, room temperature; conditions: protein: recombinant; label: 5'-TMR
RecA wild type [5] = biological target: T1, RecA wild type; test: electron microscopy; 0.1 mM ATPgS; 3.0 uM RecA, 300 nM DNA; saturated filament; 20 mM Tris-HCl pH 7.4, 10 mM Mg2+, 10 nM oligo, 0-3.0 uM RecA, 37 C 10 min; CE in 25 mM Tris, 192 mM glycine, 0.5 mM Ca2+, pH 8.3, room temperature; conditions: protein: recombinant
RecA wild type [6] = biological target: T1, RecA wild type; test: CE-LIFP; 0.01-3.0 mM ATP; 16 uM RecA; five complexes; 20 mM Tris-HCl pH 7.4, 10 mM Mg2+, 10 nM oligo, 0-3.0 uM RecA, 37 C 10 min; CE in 25 mM Tris, 192 mM glycine, 0.5 mM Ca2+, pH 8.3, room temperature; conditions: protein: recombinant; label: 5'-TMR

T1 sequence (P0A7G6 2-353): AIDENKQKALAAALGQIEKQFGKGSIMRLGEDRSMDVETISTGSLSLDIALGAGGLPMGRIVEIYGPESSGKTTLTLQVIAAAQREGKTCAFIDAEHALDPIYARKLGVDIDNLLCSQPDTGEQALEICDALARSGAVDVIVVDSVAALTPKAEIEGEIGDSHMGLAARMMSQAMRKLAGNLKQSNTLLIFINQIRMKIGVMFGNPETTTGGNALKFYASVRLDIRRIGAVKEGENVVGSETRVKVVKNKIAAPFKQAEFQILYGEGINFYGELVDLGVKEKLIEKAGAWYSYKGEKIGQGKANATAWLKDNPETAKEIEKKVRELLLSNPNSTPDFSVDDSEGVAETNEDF

B1: TMR-ss175mer (ssDNA)
DNA: TCGTCTTTGGTATGTAGGTGGTCAACAATTTTAATTGCAGGGGCTTCGGCCCCTTACTTGAGGATAAATTATGTCTAATATTCAAACTGGCGCCGAGCGTATGCCGCATGACCTTTCCCATCTTGGCTTCCTTGCTGGTCAGATTGGTCGTCTTATTACCATTTCAACTACTCCG
B1: binds (RecA wild type [1]).

TTTTTTTTTTTTTTTTTT (ssDNA) [TMR-T18]: binds (RecA wild type [2]).

TTTTTTTTTTTT (ssDNA) [TMR-T12]: binds (RecA wild type [3]).

B2: TMR-ss83mer (ssDNA)
DNA: TTTCCTACCTTAAGATCCTTCCAGTCTCCGCCGGCCAGTGTTACCCTTAGAGCTCATACCATTCGCCAATTTCTTCGCACGTT
B2: binds (RecA wild type [4]).

B3: ss83mer (ssDNA)
DNA: TTTCCTACCTTAAGATCCTTCCAGTCTCCGCCGGCCAGTGTTACCCTTAGAGCTCATACCATTCGCCAATTTCTTCGCACGTT
B3: binds (RecA wild type [5]).

TTTTTTTTTTTTTTT (ssDNA) [TMR-T15]: binds (RecA wild type [6]).
